# From the RNAGym collection of RNA variant scans (doi:10.7554/elife.80360)
# B1: HDV Ribozyme (parent)
# chain: GGCCGGCAUGGUCCCAGCCUCCUCGCUGGCGCCGGCUGGGCAACAUUCCGAGGGGACCGUCCCCUCGGUAAUGGCGAAUGGGACCCA
# Variants of: B1
# Test: self-cleavage, relative activity (ratio to wild type); higher = more cleavage; co-transcriptional
row,Variant,self-cleavage
1,GGCCGGCAUGGUCCCAGCCUCCUCGCUGGCGCAGGCUGGGCAACAUUCCGAGGGGACCGUCCCCUCGGUAAAGGCGAAUGGGACCCA,0.208
2,GGCCGGCAUGGUCCCAGCCUCCUCGCUGGCGCGGGCUGGGCAACAUUCCGAGGGGACCGUCCCCUCGGUAAUGGCGAAUGGGACCCC,0.0839
3,GGCCGGCAUGGUCCCAGCCUCCUCGCUGGCGCGGGCUGGGCAACAUUCCGAGGGGACCGUCCCCUCGGUAAUGGCGAAUGGGACCCG,0.116
4,GGCCGGCAUGGUCCCAGCCUCCUCGCUGGCGCGGGCUGGGCAACAUUCCGAGGGGACCGUCCCCUCGGUAAUGGCGAAUGGGACCCU,0.151
5,GGCCGGCAUGGUCCCAGCCUCCUCGCUGGCGCAAGCUGGGCAACAUUCCGAGGGGACCGUCCCCUCGGUAAUGGCGAAUGGGACCCA,0.166
6,GGCCGGCAUGGUCCCAGCCUCCUCGCUGGCGCAGGCUGGGCAACAUUCCGAGGGGACCGACCCCUCGGUAAUGGCGAAUGGGACCCA,0.193
7,GGCCGGCAUGGUCCCAGCCUCCUCGCUGGCGCAGGCUGGGCAACAUUCCCAGGGGACCGUCCCCUCGGUAAUGGCGAAUGGGACCCA,0.203
8,GGCCGGCAUGGUCCCAGCCUCCUCGCUGGCGCAGGCUGGGCAACAUUCCAAGGGGACCGUCCCCUCGGUAAUGGCGAAUGGGACCCA,0.215
9,GGCCGGCAUGGUCCCAGCCUCCUCGCUGGCGCAGGCUGGGCAACAUUCCUAGGGGACCGUCCCCUCGGUAAUGGCGAAUGGGACCCA,0.295
10,GGCCGGCAUGGUCCCAGCCUCCUCGCUGGCGCAGGCUGGGCAACAUUCCGAGGGGACCGUCCCCUCGCUAAUGGCGAAUGGGACCCA,0.0449
11,GGCCGGCAUGGUCCCAGCCUCCUCGCUGGCGCAGCCUGGGCAACAUUCCGAGGGGACCGUCCCCUCGGUAAUGGCGAAUGGGACCCA,0.133
12,GGCCGGCAUGGUCCCAGCCUCCUCGCUGGCGCGGGCUGGGCAAGAUUCCGAGGGGACCGUCCCCUCGGUAAUGGCGAAUGGGACCCA,0.101
13,GGCCGGCAUGGUCCCAGCCUCCUCGCUGGCGCAGGCUGGGCAACAUUCCGAGGGUACCGUCCCCUCGGUAAUGGCGAAUGGGACCCA,0.349
14,GGCCGGCAUGGUCCCAGCCUCCUCGCUGGCGCAGGCUGGGCAACAUUCCGAGGGGACCGUCCCCUCGGUAAUGGCGAAUUGGACCCA,0.136
15,GGCCGGCAUGGUCCCAGCCUCCUCGCUGGCGCAGGCUGGGCAACAUUCCGAGGGGACCGUCCCCUCGGUAAUGGCGAAUCGGACCCA,0.16
16,GGCCGGCAUGGUCCCAGCCUCCUCGCUGGCGCAGGCUGGGCAACAUUCCGAGGGGACCGUCCCCUCGGUAAUGACGAAUGGGACCCA,0.0219

row,Variant,self-cleavage
1,GGCCGGCAUGGUCCCAGCCUCCUCGCUGGCGCAGGCUGGGCAACAUUCCGAGGGGACCGUCCCCUCGGUAAUGGCGAAUGGCACCCA,0.17
2,GGCCGGCAUGGUCCCAGCCUCCUCGCUGGCGCGGGCUGGGCAACAUUCCGAGGGGACCGUCCCCUCGGUAAUGGCGAAUGGGUCCCA,0.162
3,GGCCGGCAUGGUCCCAGCCUCCUCGCUGGCGCGGGCUGGGCAACAUUCCGAGGGGACCGUCCCCUCGGUAAUGGCGAAUGGGGCCCA,0.0963
4,GGCCGGCAUGGUCCCAGCCUCCUCGCUGGCGCAGGCUGGGCAACAUUCCGAGGGGACCGUCCCCUCGGGAAUGGCGAAUGGGACCCA,0.287
5,GGCCGGCAUGGUCCCAGCCUCCUCGCUGGCGCAGGCUGGGCAACAUUCCGAGGGGACCGUCCCCUCGGCAAUGGCGAAUGGGACCCA,0.342
6,GGCCGGCAUGGUCCCAGCCUCCUCGCUGGCGCAGGCUGGGCAACAUUCCGAGGGGACCUUCCCCUCGGUAAUGGCGAAUGGGACCCA,0.338
7,GGCCGGCAUGGUCCCAGCCUCCUCGCUGGCGCAGGCUGGGCAACAUUCCGAGGGGACCCUCCCCUCGGUAAUGGCGAAUGGGACCCA,0.521
8,GGCCGGCAUGGUCCCAGCCUCCUCGCUGGCGCAGGCUGGACAACAUUCCGAGGGGACCGUCCCCUCGGUAAUGGCGAAUGGGACCCA,0.214
9,GGCCGGCAUGGUCCCAGCCUCCUCGCUGGCGCAGGCUGUGCAACAUUCCGAGGGGACCGUCCCCUCGGUAAUGGCGAAUGGGACCCA,0.138
10,GGCCGGCAUGGUCCCAGCCUCCUCGCUGGCGCAGGCUGCGCAACAUUCCGAGGGGACCGUCCCCUCGGUAAUGGCGAAUGGGACCCA,0.0678
11,GGCCGGCAUGGUCCCAGCCUCCUCGCUGGCGCAGGCUGGGCAACAUUCCGAGAGGACCGUCCCCUCGGUAAUGGCGAAUGGGACCCA,0.264
12,GGCCGGCAUGGUCCCAGCCUCCUCGCUGGCGCAGGCUGGGCAACAUUCCGAGUGGACCGUCCCCUCGGUAAUGGCGAAUGGGACCCA,0.277
13,GGCCGGCAUGGUCCCAGCCUCCUCGCUGGCGCAGGCUGGGCAACAUUCCGAGGGGACCGUCCCCUCGGUAAUGGCGAACGGGACCCA,0.0893
14,GGCCGGCAUGGUCCCAGCCUCCUCGCUGGCGCGGGCUGGGCUACAUUCCGAGGGGACCGUCCCCUCGGUAAUGGCGAAUGGGACCCA,0.0678
15,GGCCGGCAUGGUCCCAGCCUCCUCGCUGGCGCGGGCUGGGCAACAUUCCGAGGGGACCGUCCCCUCGGUAAUGGCGUAUGGGACCCA,0.106
16,GGCCGGCAUGGUCCCAGCCUCCUCGCUGGCGCAGGCUGGGCAACAUGCCGAGGGGACCGUCCCCUCGGUAAUGGCGAAUGGGACCCA,0.378
